These results are taken from PMC6458997.

The target in series [1] is T1, AimR N202A (SPbeta) (Bacillus subtilis phage SPbeta (cloned …, UniProt O31927 1-386, N202A)).
T1 sequence: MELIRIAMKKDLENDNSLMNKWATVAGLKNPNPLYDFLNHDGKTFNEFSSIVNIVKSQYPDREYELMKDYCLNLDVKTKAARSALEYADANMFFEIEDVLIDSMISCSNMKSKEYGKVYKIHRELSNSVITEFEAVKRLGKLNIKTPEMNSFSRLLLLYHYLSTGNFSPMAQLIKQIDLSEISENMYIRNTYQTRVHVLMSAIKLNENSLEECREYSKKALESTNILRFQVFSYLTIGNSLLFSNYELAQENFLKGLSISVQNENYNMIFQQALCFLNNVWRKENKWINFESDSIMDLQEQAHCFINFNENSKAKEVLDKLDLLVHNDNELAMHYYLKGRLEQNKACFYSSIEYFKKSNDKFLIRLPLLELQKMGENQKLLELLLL
Briefly: EMSA; apo; WT probe assumed; EMSA: 50 mM HEPES pH 7.5, 5 mM MgCl2, 75 mM NaCl, 0.5 mM EDTA; 0.4 uM DNA, 4 uM AimR; 10 min at room temperature; 8% PAGE in TBE at 4 C or agarose in TAE at room temperature. Conditions: protein: recombinant; tags: N-terminal 6xHis-TEV, cleaved (as WT); chain copies: 2.

Series [2] concerns the target T2, AimR D360A (SPbeta) (Bacillus subtilis phage SPbeta (cloned …, UniProt O31927 1-386, D360A)).
T2 sequence: T1 sequence with A202N, D360A
The description is as above. Conditions: protein: recombinant; tags: N-terminal 6xHis-TEV, cleaved (as WT); chain copies: 2.

Positions count from the first letter of the chain named.

B1: SPbeta operator WT 45 bp (dsDNA)
DNA 1: GTTGATCACTAGATGTTATTAAAACCTAATATTTAAGTGATGGCC
DNA 2: GGCCATCACTTAAATATTAGGTTTTAATAACATCTAGTGATCAAC
For the molecule B1, the binding result is listed as “binds” in series [1] and “no binding” in series [2].
